Assay results published in patent US20210063414A1, “METHODS FOR PREVENTING AND/OR TREATING BONE LOSS CONDITIONS BY MODULATING IRISIN” (Dana-Farber Cancer Institute, Inc., priority 2018, published 2021).

Molecular target: T1, MLO-Y4 cell surface proteins (Mus musculus, UniProt P70388)
T1 construct: endogenous in cells; host or cells: MLO-Y4
T1 sequence (P70388 1-1312): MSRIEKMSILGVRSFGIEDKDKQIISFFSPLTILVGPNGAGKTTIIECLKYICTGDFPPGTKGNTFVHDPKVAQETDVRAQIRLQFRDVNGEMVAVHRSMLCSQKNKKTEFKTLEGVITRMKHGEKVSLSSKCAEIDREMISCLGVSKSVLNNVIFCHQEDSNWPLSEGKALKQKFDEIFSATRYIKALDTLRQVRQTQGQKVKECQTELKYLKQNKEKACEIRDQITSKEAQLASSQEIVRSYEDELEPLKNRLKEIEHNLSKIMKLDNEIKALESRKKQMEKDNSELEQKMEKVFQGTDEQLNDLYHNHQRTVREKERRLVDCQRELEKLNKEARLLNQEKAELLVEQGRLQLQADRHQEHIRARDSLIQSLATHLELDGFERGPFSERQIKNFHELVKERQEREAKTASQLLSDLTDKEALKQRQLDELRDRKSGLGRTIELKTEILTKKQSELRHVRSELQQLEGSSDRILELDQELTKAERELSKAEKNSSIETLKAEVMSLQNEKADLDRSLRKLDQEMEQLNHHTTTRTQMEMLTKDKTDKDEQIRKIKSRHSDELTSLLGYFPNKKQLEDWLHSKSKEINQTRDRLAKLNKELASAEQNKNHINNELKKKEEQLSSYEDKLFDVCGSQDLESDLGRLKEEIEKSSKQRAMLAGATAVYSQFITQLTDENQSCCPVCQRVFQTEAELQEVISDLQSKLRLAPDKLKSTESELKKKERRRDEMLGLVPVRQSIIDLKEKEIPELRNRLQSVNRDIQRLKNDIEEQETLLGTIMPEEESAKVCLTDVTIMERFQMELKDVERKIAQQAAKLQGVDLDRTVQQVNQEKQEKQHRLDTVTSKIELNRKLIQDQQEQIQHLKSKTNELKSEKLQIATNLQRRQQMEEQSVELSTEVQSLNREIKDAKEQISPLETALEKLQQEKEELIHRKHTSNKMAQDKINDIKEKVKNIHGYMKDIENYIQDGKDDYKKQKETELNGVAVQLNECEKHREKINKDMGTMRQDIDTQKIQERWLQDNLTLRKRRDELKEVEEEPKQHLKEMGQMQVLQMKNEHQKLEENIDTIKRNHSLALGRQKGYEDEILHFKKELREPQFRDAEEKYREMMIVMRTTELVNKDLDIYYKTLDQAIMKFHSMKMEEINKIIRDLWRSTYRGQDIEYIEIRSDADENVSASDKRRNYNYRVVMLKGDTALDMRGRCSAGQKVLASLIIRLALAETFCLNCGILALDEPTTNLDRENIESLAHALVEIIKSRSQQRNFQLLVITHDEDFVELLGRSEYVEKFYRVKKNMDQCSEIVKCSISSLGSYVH
Assay: Crosslinking/co-immunoprecipitation/mass spectrometry (TMT quantitative proteomics) to identify irisin receptors
Format: binding
Conditions: co-precipitated protein Rad50 (RAD50_MOUSE)
Method in brief: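 Mouse MLO-Y4 cells were switched to serum-free FreeStyle medium for 4 h, chilled, then exposed to 10 nM His-tagged irisin (or adipsin as control) for 20 min. Cells were crosslinked with 1.5 mM DTSSP (30 min, ice), and bound proteins were pulled down on Ni-NTA and eluted with 250 mM imidazole. Eluates were separated by SDS-PAGE, trypsin-digested in gel, TMT 6-plex labelled and quantified by MS3-based LC-MS/MS on an Orbitrap Fusion Lumos.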

For adipsin, the TMT signal-to-noise ratio was 422.246.
